Results published in article PMC4247251.

Target: PhTX-II PLA2 (Porthidium hyoprora)

## crotapotin F2 from Crotalus durissus collilineatus (natural protein)
  inhibition of the PLA2 enzymatic activity of PhTX-II (substrate 4-nitro-3-(octanoyloxy) benzoic acid) after incubating the two proteins 1:1 w/w for 30 min at 37 °C: 60%

## crotapotin F3 from Crotalus durissus collilineatus (natural protein)
  inhibition of the PLA2 enzymatic activity of PhTX-II (substrate 4-nitro-3-(octanoyloxy) benzoic acid) after incubating the two proteins 1:1 w/w for 30 min at 37 °C: 60%
